We go through one variant from IntAct's records for PubMed 10064581.

First the molecules themselves.
B1: Circadian clock oscillator protein KaiA (Synechococcus elongatus (strain PCC 7942)), Q79PF6 (parent)
chain: MLSQIAICIWVESTAILQDCQRALSADRYQLQVCESGEMLLEYAQTHRDQIDCLILVAANPSFRAVVQQLCFEGVVVPAIVVGDRDSEDPDEPAKEQLYHSAELHLGIHQLEQLPYQVDAALAEFLRLAPVETMADHIMLMGANHDPELSSQQRDLAQRLQERLGYLGVYYKRDPDRFLRNLPAYESQKLHQAMQTSYREIVLSYFSPNSNLNQSIDNFVNMAFFADVPVTKVVEIHMELMDEFAKKLRVEGRSEDILLDYRLTLIDVIAHLCEMYRRSIPRET
partner: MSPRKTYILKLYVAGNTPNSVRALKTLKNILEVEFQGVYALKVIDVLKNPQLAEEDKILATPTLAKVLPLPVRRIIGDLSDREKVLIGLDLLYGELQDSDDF

The variants in the assay derive from B1. The settings on record: with kaib_syne7 kaiB.
Consider E103K, for which the “effect of a mutation on the interaction” value is listed as “increasing interaction”.
